Data published in publication doi:10.1101/2025.09.03.673757.

What was measured:
[1] = target: N-terminally His6-tagged Gαo E246K mutant (rat) (UniProt P59215)
[2] = target: N-terminally His6-tagged wild-type Gαo (rat) (UniProt P59215)

RGS16 domain (domain or fragment) was tested, and the kGAP (single-turnover GTPase assay, 400 nM Gα, 20 nM RGS16) [1] was 1.7 min⁻¹ and the kGAP (single-turnover GTPase assay, 400 nM Gα, 20 nM RGS16) [2] was 1.6 min⁻¹.
